Measurements reported in article PMC3282585 (Science Signaling, 2011).

Target: T1, IL17RA-SEFIR (SEFIR domain-containing fragment of human IL17RA, residues 351 to 616) (human, UniProt Q96F46 351-616)
T1 sequence (looked up): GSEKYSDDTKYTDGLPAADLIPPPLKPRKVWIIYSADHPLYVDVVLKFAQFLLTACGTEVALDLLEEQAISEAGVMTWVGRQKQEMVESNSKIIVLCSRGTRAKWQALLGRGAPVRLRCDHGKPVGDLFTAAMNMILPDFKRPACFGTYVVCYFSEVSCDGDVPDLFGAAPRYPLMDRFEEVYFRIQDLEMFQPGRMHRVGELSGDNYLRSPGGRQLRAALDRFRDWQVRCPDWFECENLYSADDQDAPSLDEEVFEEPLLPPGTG
Experiment: SPR

LDEDEHGLHTKY [CC′ loop peptide of the Act1 SEFIR domain]
binding result: binds
